Laboratory results taken from publication PMC4529235, “The Human Acid-Sensing Ion Channel ASIC1a: Evidence for a Homotetrameric Assembly State at the Cell Surface” (PLoS ONE, 2015).
Where a chain is given by its changes, count along the chain named. In names and notes the source's numbering stands.

B1: wild type human ASIC1a (H8-ASIC1a) (natural protein, UniProt P78348-2 1-528, looked up)
chain: MELKAEEEEVGGVQPVSIQAFASSSTLHGLAHIFSYERLSLKRALWALCFLGSLAVLLCVCTERVQYYFHYHHVTKLDEVAASQLTFPAVTLCNLNEFRFSQVSKNDLYHAGELLALLNNRYEIPDTQMADEKQLEILQDKANFRSFKPKPFNMREFYDRAGHDIRDMLLSCHFRGEVCSAEDFKVVFTRYGKCYTFNSGRDGRPRLKTMKGGTGNGLEIMLDIQQDEYLPVWGETDETSFEAGIKVQIHSQDEPPFIDQLGFGVAPGFQTFVACQEQRLIYLPPPWGTCKAVTMDSDLDFFDSYSITACRIDCETRYLVENCNCRMVHMPGDAPYCTPEQYKECADPALDFLVEKDQEYCVCEMPCNLTRYGKELSMVKIPSKASAKYLAKKFNKSEQYIGENILVLDIFFEVLNYETIEQKKAYEIAGLLGDIGGQMGLFIGASILTVLELFDYAYEVIKHKLCRRGKCQKEAKRSSADKGVALSLDDVKRHNPCESLRGHPAGMTYAANILPHHPARGTFEDFTC
notes: ends with the terminal Cys (C528); Same construct expressed in two hosts; the printed band intensities pool oocytes and CHO cells; also called ASIC1a wt; hASIC1a; source: Xenopus laevis oocytes, cRNA injected; CHO-K1 cells, transfected; not shown: His8, N-terminal, kept
B2: ASIC1a G433C (with intact C-terminal cysteines) (natural protein, human, UniProt P78348-2 1-528, looked up)
chain: B1 chain with G433C
notes: human ASIC1a with G433C, C-terminal cysteines intact; The methods describe G433C only on the ΔCCt template; the results say that this G433C has intact C-terminal cysteines; source: Xenopus laevis oocytes, cRNA injected; CHO-K1 cells, transfected; not shown: His8, N-terminal, kept
B3: ASIC1a-ΔCCt (H8-hASIC1a-C466A/C471A/C497A/C528Stop) (natural protein, human, UniProt P78348-2 1-527, looked up)
chain: MELKAEEEEVGGVQPVSIQAFASSSTLHGLAHIFSYERLSLKRALWALCFLGSLAVLLCVCTERVQYYFHYHHVTKLDEVAASQLTFPAVTLCNLNEFRFSQVSKNDLYHAGELLALLNNRYEIPDTQMADEKQLEILQDKANFRSFKPKPFNMREFYDRAGHDIRDMLLSCHFRGEVCSAEDFKVVFTRYGKCYTFNSGRDGRPRLKTMKGGTGNGLEIMLDIQQDEYLPVWGETDETSFEAGIKVQIHSQDEPPFIDQLGFGVAPGFQTFVACQEQRLIYLPPPWGTCKAVTMDSDLDFFDSYSITACRIDCETRYLVENCNCRMVHMPGDAPYCTPEQYKECADPALDFLVEKDQEYCVCEMPCNLTRYGKELSMVKIPSKASAKYLAKKFNKSEQYIGENILVLDIFFEVLNYETIEQKKAYEIAGLLGDIGGQMGLFIGASILTVLELFDYAYEVIKHKLARRGKAQKEAKRSSADKGVALSLDDVKRHNPAESLRGHPAGMTYAANILPHHPARGTFEDFT
notes: human ASIC1a lacking the cysteines of the C-terminus; C528Stop removes the last residue; also called Ctrl; source: Xenopus laevis oocytes, cRNA injected; not shown: His8, N-terminal, kept
B4: V74C-ΔCCt (natural protein, human, UniProt P78348 1-527, looked up)
chain: B3 chain with V74C
notes: human ASIC1a, ΔCCt background (C528Stop removes the last residue) with V74C; source: Xenopus laevis oocytes, cRNA injected; not shown: His8, N-terminal, kept
B5: Y426C-ΔCCt (natural protein, human, UniProt P78348 1-527, looked up)
chain: B3 chain with Y426C
notes: human ASIC1a, ΔCCt background (C528Stop removes the last residue) with Y426C; also called Y426C-CCt; source: Xenopus laevis oocytes, cRNA injected; not shown: His8, N-terminal, kept
B6: G430C-ΔCCt (natural protein, human, UniProt P78348 1-527, looked up)
chain: B3 chain with G430C
notes: human ASIC1a, ΔCCt background (C528Stop removes the last residue) with G430C; source: Xenopus laevis oocytes, cRNA injected; not shown: His8, N-terminal, kept
B7: G433C-ΔCCt (natural protein, human, UniProt P78348 1-527, looked up)
chain: B3 chain with G433C
notes: human ASIC1a, ΔCCt background (C528Stop removes the last residue) with G433C; source: Xenopus laevis oocytes, cRNA injected; not shown: His8, N-terminal, kept

Tests used:
[1] = biological target: the molecule itself; assay: cross-linking; intracellular BMOE (2 mM, internal perfusion or injection) in Xenopus oocytes; SDS-PAGE under reducing conditions, anti-ASIC1a western blot
[2] = biological target: the molecule itself; assay: cross-linking; BMOE (0.5 or 2 mM) at the cell surface of Xenopus oocytes and CHO cells before lysis, cell-surface biotinylated fractions, SDS-PAGE under reducing conditions, anti-ASIC1a western blot; band intensities pooled over oocytes and CHO cells
[3] = biological target: the molecule itself; assay: cross-linking; 2 mM BMOE at the cell surface of intact Xenopus oocytes, cell-surface biotinylation, streptavidin beads, SDS-PAGE under reducing conditions, anti-His-tag western blot (ΔCCt background)

| Protein | stoichiometry N [3] | also measured |
| --- | --- | --- |
| B1 |  | stoichiometry N [1]: 4 |
| B2 |  | stoichiometry N [2]: 4 |
| B3 | 2 |  |
| B4 | 4 |  |
| B5 | 4 |  |
| B6 | 4 |  |
| B7 | 4 |  |
